Entries after “also recorded” stand apart in the source; their conditions may differ.
Assays:
[1] = tested on: IL-8; experiment: IL-8 expression in NHBE cells (RT-PCR and ELISA); assay type: cell-based, human; settings: 100 ng/ml
Description: FIGS. 3A-3C. FIG. 3A, Expression of ML-1 protein in COS-7 cells. COS-7 cells were transfected with a gene construct containing full-length ML-1 sequence and a tag sequence encoding poly (His) peptide. ML-1-His fusion proteins were purified from supernatants of the transfected cells using a His affinity column, run on an 8-16% SDS-polyacrylamide gel under reducing conditions, and analyzed by Western Blot using anti-His monoclonal antibody. Lane 1 represents a mock-transfected sample. Lane 2 represents an ML-1-transfected sample. The location of a 19.5 kd marker is indicated. FIG. 3B, Effect of ML-1 on IL-8 gene expression. Human primary bronchial epithelial cells (NHBE cells) were treated with different stimuli. The cells were harvested 4 hours after stimulation, and total RNA was extracted and subjected to RT-PCR using IL-8 and G3PDH primers. Lane 1, medium only; lane 2, cells treated with rIL-17 (100 ng/ml); lane 3, cells treated with purified His-tagged protein (Positope, 100 ng/ml); lane 4, cells treated with ML-1 (100 ng/ml). FIG. 3C, Effect of ML-1 on IL-8 protein production. NHBE cells were treated with the same stimuli used in FIG. 3B, and the supernatants were harvested 48 hours after stimulation.
Primary human bronchial epithelial (NHBE) cells were purchased from Clonetics (San Diego, Calif.) and cultured according to the manufacturer's instructions. The cells were treated with IL-17 (100 ng/ml), ML-1 (100 ng/ml), or a control His-tagged protein (Positope, 100 ng/ml; Invitrogen, Carlsbad, Calif.). The affinity-purified control His protein was dissolved in the same buffer as ML-1. Total RNA was extracted using Rneasy (Qiagen, Chatsworth, Calif.) from 1×10^6 cells 4 hours after stimulation or exchange of media. The protocol for cDNA synthesis was that described above. For PCR, the sequences of PCR primers were based on the human IL-8 cDNA sequence. The sequences of PCR primers for IL-8 were: forward, 5′-TCTGCAGCTCTGTGTGAAG-3′ (SEQ ID NO:14) and reverse, 5′-TAATTTCTGTGTTGGCGCA-3′ (SEQ ID NO:15). The amplification reaction was performed for 23 cycles with denaturation at 94° C. for 45 seconds, annealing at 56° C. for 45 seconds, and extension at 72° C. for 45 seconds PCR products were detected by ethidium bromide staining. The expected size for IL-8 was 154 basepairs. IL-8 protein levels in the collected supernatants were determined with a commercially available ELISA kit (Biosource, Camarillo, Calif.) according to the manufacturer's instructions.

[2] = tested on: IL-8; experiment: IL-8 expression in HUVECs (ELISA, RT-PCR); assay type: cell-based, human; settings: ML-1 10 and 100 ng/ml, 24 and 48 hours, ELISA
Method: FIG. 5. Analysis of IL-6 (FIG. 5A) and IL-8 (FIG. 5B) expression in primary bronchial epithelial cells (PBECs) and human umbilical vein endothelial cells (HUVECs) stimulated by ML-1. The IL-6 and IL-8 protein release in the supernatant was determined by ELISA as described in Example 8. The results were expressed as mean+SD (n=6). *p<0.05 was considered significant vs control.
FIG. 7A-7D. Effect of PD98059 on IL-6 (FIG. 7A) and IL-8 (FIG. 7B) protein production in PBECs and HUVECs. The cells were preincubated with varying concentrations of PD98059, SB202190, or DMSO vehicle control for 1 hour, followed by stimulation with ML-1 (100 ng/ml) for 24 hours. The results are expressed as the mean+SD (n=6). *P<0.05 when compared to cultures without the addition of PD98059. FIGS. 7C and 7D. Semi-quantitative analysis of gene expression for IL-6 (FIG. 7C) and IL-8 (FIG. 7D) by RT-PCR. The cells were preincubated as described above and treated with ML-1 for 4 hours. RT-PCR was performed as described in Example 8. The results shown are representative of three separate experiments.
Human umbilical vein endothelial cells (HUVECs) were obtained from Clonetics and cultured in endothelial cell growth media (EGM; Clonetics) containing 12 μg/ml bovine brain extract, 10 ng/ml EGF, 1 μg/ml hydrocortisone, 50 μg/ml gentimicin, 50 ng/ml amphotericin B, and 5% FBS amphotericin-B (Clonetics).
PBECs and HUVECs were treated with ML-1 100 ng/ml of ML-1 for various time points. Total RNA was extracted using RNeasy (Qiagen) from 1×10^6 cells 4 hours after stimulation or exchange of media. […]
The amplification reaction was performed for 23 cycles with denaturation at 94° C. for 45 seconds, annealing at 56° C. for 45 seconds, and extension at 72° C. for 45 seconds. PCR products were detected by ethidium bromide staining and normalized by the intensity of an amplified housekeeping gene, G3PDH (see above). […] IL-6 and IL-8 protein levels in the collected supernatants were determined with a commercially available ELISA kit (Biosource, Camarillo, Calif.) according to the manufacturer's instructions.

B1: ML-1: new member of the IL-17 cytokine family, SEQ ID NO:2; His-tagged recombinant protein expressed in COS-7 cells and affinity purified (protein, listed as Homo sapiens)
chain: MKLDIGIINENQRVSMSRNIESRSTSPWNYTVTWDPNRYPSEVVQAQCRNLGCINAQGKEDISMNSVPIQQETLVVRRKHQGCSVSFQLEKVLVTVGCTCVTPVIHHVQ
modifications: His tag
**Q.** For B1, which IL-8 protein expression ([1]; ELISA of supernatants, 48 hours) is on record?
**A.** enhanced

**Q.** And the IL-8 transcript expression ([1]; RT-PCR)?
**A.** enhanced

**Q.** And the IL-8 production [2]?
**A.** time-dependent increase; also recorded: significantly induced

— patent US20060073572A1, “Cytokine structurally related to IL-17” (The Johns Hopkins University, priority 2001, published 2006)
